# Data: the nanobody polyreactivity screen of Harvey et al. (2022)
# Experiment: yeast display, Sf9 membrane polyspecificity reagent, FACS + sequencing; frameworks hold sequencing errors
# How it was run: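 Synthetic nanobody libraries on Saccharomyces cerevisiae BJ5465 were galactose-induced for 36–48 hours, stained 1 hour at 4 °C with 10% biotinylated, detergent-solubilized Sf9 membrane reagent and enriched on streptavidin microbeads. FACS then separated cells into low and high (top ~1%) gates by anti-HA (expression) and streptavidin (reagent binding) fluorescence. Genes were colony-PCR amplified, MiSeq 2 × 250 sequenced and CDR-length filtered. A clone's polyreactivity label is that of its gate of origin.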
sequence,measurement,value
QVQLVESVGGLVQAGGSLRLSCAASGSIFYYNTMGWYRQAPGKVRELVATISSDGGTNYADSVKGRFTISRDNAKNTVYLQMNSLKPEDTAVYYCAAAVSPYSYWPGFDYWGQGTQVTVSS,polyreactivity (PSR sort gate),low polyreactivity
QVQLVESVGGLVQAGGSLRLSCAASGSMFKVYAMGWYRQAPGKEREFVAAITSSDSNTNYADSVKGRFTISRDNAKNTVYLQMNSLKPEDTAVYYCNKDGGGDSYWYDYWGQGTQVTVSS,polyreactivity (PSR sort gate),low polyreactivity
QVQLVESVGGLVQAGGSLRLSCAASGSNFGSYAMGWYRQAPGKERSTYYADSVKGRFTISRDNAKNTVYLQMNSLKPEDTAVYYCAADTYGYQGSAGGHWGQGTQVTVSS,polyreactivity (PSR sort gate),low polyreactivity
QVQLVESVGGLVQAGGSLRLSCAASGSTFAFNAMGWYRQAPGKEREFVAAITWRGGSTYYADSVKGRFTISRDNAKNTVYLQMNSLKPEDTAVYYCARRPGYALTWRVSGRYDYWGQGTQVTVSS,polyreactivity (PSR sort gate),high polyreactivity
QVQLVESVGGLVQAGGSLRLSCAASGSTFKAYAVGWYRQAPGKEGELVAAITKSGGRTYYADSVKGRFTISLDNAKNTVYLQMNSLKPEDTAVYYCAAVFRPDSSAFRYYYWGQGTQVTVSS,polyreactivity (PSR sort gate),high polyreactivity
QVQLVESVGGLVQAGGSLRLSCAASGSTFVDYAMGWYRQAPGKERELVAGINGSGGSTYYADSVKGRFTISRDNAKNTVYLQMNSLKPEDTAVYYCNARNPWRKRSQGYSWGQGTQVTVSS,polyreactivity (PSR sort gate),low polyreactivity
QVQLVESVGGLVQAGGSLRLSCAASGSTFYRYAMGWYRQAPGKERELVAAISSDGTTYYADSVKGRFTISRDNAKNTVYLQLNSLKPEDTAVYYCAKRGYYRSRRYDYWGQGTLVTVSS,polyreactivity (PSR sort gate),high polyreactivity
QVQLVESVGGLVQAGGSLRLSCAASGSTYDHNAMGWSRHAPGKERELVAAISSDGSTNYADSVKGRFTISRDNAKNTVYLQMNSLKPEDTGVYYCNADGVYLGDYEYWGQGTQVTVSS,polyreactivity (PSR sort gate),low polyreactivity
QVQLVESVGGLVQAGGSLRLSCAASGSTYPYYAMGWYRQAPGKERELVAASTSGGSTNYADSVKGRFTISRDNAKNTVYLQMNSLKPEDTSVYYCATDWSVDLWTWYYYWGQGTQVTVSS,polyreactivity (PSR sort gate),high polyreactivity
QVQLVESVGGLVQAGGSLRLSCAASGYTFFYAMGWYRQAPGKERELVASITSAASTTYADSVKGRFTISRDNAKNTVYLQMNSLKPEDTAVYYCAASHSWWFYPGYYYWGQGTQVTVSS,polyreactivity (PSR sort gate),high polyreactivity
QVQLVESVGGLVQAGGSLRLSCAASVRTFSSYAMGWYRKPPGKERELVAVITSGSSTHYADSVKGRFTISRDNAKNTVYLQMNSLKPEDTAVYYCAARDIREIDCISYWYDYWGQGTQVTVSS,polyreactivity (PSR sort gate),high polyreactivity
QVQLVESVGGLVQAGGSLRLSCAASVYTFPRYTMGWYRQAPGKERELVAAINWSGGSTYYADSVKRRFTISRDNAKNTVYLQMNSLKPEDTAVYYCNKAYVSRYDYWGQGTQVTVSS,polyreactivity (PSR sort gate),high polyreactivity
QVQLVESVGGLVQAGGSLRLSCAATGFILAPYAMGWYRQSPGKETELVAAITRSGGITYYADSVKGRFTISRDNAKNTVYLQMNSLKPEDTAVYYCAARNYRYRYARAYDYWGQGTQVTVSS,polyreactivity (PSR sort gate),high polyreactivity
QVQLVESVGGLVQAGGSLRLSCASSGFIFATNTMGCYRQAPGKERALVAAMSRSGGSTYYADSVKGRFTISRDNAKNTVYLQMNSLKPEDTAVYYCAADVRLRSTRARFDYWGQGTQVTVSS,polyreactivity (PSR sort gate),high polyreactivity
QVQLVESVGGLVQAGGSLRLSCDASGGIFWVYAMGWYRQAPGKERELVAAISNSDTSTSYADSVKGRFTISRDNAKNTVYLQMNSLKPEDTAVYYCNADSPSLSGDYWGQGTQVTVSS,polyreactivity (PSR sort gate),low polyreactivity
QVQLVESVGGLVQAGGSLRLSCSASGITFSYNAMGWYRQAPGKERELVAAISDIGGSTYYADSVKGRFTISRDNAKNTVYLQMNSLKPEDTAVYYCAADEYYQDEYDYWGQGTQVTVSS,polyreactivity (PSR sort gate),low polyreactivity
QVQLVESVGGLVQAGGSLRLSCSASGSIIYSYAMGWYRQAPGKERELVADITTGGGSTYYADSVKGRFTISRDNAKNTVYLQMNSLKPEDTAVYYCAAEQDTVWFLWIVDYCGQGTQVTVSS,polyreactivity (PSR sort gate),low polyreactivity
QVQLVESVGGLVQAGGSLRLSSAASGLIFDVYPMGWYSQGPGKERELVAAISTSGGRTYYADSVKGRFTISRDNAKNTVYLQMTSLKPEDTAVYYCAAVSPHNRYGYKYDYWGQGTQVTVSS,polyreactivity (PSR sort gate),high polyreactivity
QVQLVESVGGLVQAGGSLRLSSAASGRTFKGNAMGCYSQAHGKERELVAVITGSGGSTYYADSVKGRFTISRDNAKNTVYLQMNSLKPEDTAVYYCNKKLQRRSWYVYWGLGTQVTVSS,polyreactivity (PSR sort gate),low polyreactivity
QVQLVESVGGLVQAGGSLRLSSAASGRTFYFYTMGWYTQAPGKERELVATIRWSAGSTYYADSVKGRFTISRDNAKNTVYLQMNSLKPEDTAVYYCNADPYVYSSWQYGYWGQGTQVTVSS,polyreactivity (PSR sort gate),high polyreactivity
QVQLVESVGGLVQAGGSLRLSSAASGRTSWYYAMGWYRQAPGKERELVATITRTTGSTYYADSVKGRFTISRDNAKNTVYLQMNSLKPEDTAVYYCDRLYYFNGDYWGLGTQVTVSS,polyreactivity (PSR sort gate),high polyreactivity
QVQLVESVGGLVQAGGSLRLSSSASGSNCVLNAIGWYRQAPGKEWELVAAITKVGSTYYADSVKGRFTISRDNAKNTVYLQMNSLIPEDTAVYYCNADPGEVLVGYDYWGQGTQVTVSS,polyreactivity (PSR sort gate),low polyreactivity
QVQLVESVGGLVQAGVSLRLSCAASGRIFGRYPMGWYRQAPGKERELVAAISFNGGSTSYADSVKGRFTISRDNAKNTVYLQMNSLKQEDTAVYYCAAKYRGFNYWGQGTQVTVSS,polyreactivity (PSR sort gate),high polyreactivity
QVQLVESVGGLVQEGGSLRLSCAASGFTFAFYAMGWYRQAPGKERELVAAMTRSGGSTYYADSVKGRFTISRDNAKNTVYLQMNSLKPEDTAVYYCAAVISRWGRSTYDYWGQGTQVTVSS,polyreactivity (PSR sort gate),high polyreactivity
QVQLVESVGGVVQAGGSLRLSCAASGRIFDRNAKGWYSQAPGKERELVAAITSGGSTNYADSVKGRFTISRDNAKNTVYLQMNSLKPEDTAVYYCANDFTSRYAPPEAYDYWGQGTQVTVSS,polyreactivity (PSR sort gate),low polyreactivity
QVQLVESVGRLVQAGGSLRLSCAASGFIFIFYTMGWYRHAPGKERELVASITSSGGSTYYADSVKGRFTISRDNAKNTVYLQMNSLNPEDTAVYYCAAKKYRSPRGYWGLGTQVTVSS,polyreactivity (PSR sort gate),high polyreactivity
QVQLVESVGRLVQAGGSLRLSCAASGIIFSVNAMGWYRQAPGKERELVAAITYSGGSTYYADSVKGRFTISRDNAKNTVYLQMNSLKPEDTAVYYCATSYYSSGTWSEYYYWCQGTQVTVSS,polyreactivity (PSR sort gate),high polyreactivity
QVQLVESVGVLVQAGGSLPLSCAASGFTFQQYAMGWYRQAPGKERELVAAISWSGGSTNYADSVKGRFTISRDNAKNTVYLQMNSMKPEDTAVYYCAAYLRYYRKEVGYSSMNYWGQGTQVTVSS,polyreactivity (PSR sort gate),high polyreactivity
QVQLVESVGVLVQAGGSLRLSSAASGGILPRYAMGWYRQAPGKERELVAVITRGGSTYYADSVKGRFTISRDNAKNTVYLQMNSLKPEDNAVYYFAKYRYQTGIFYYWGQGTQVTVSS,polyreactivity (PSR sort gate),high polyreactivity
QVQLVESVRGLVQAGGSLLLSCAASGITITHYDMGWYRHSSGKESELVAAITSSGRTYYADSVKGRFSLSRDNAKNTVYLQMNSLKPEDTAVYYCDAEHSWFYGLLGYWGQGTQVTVSW,polyreactivity (PSR sort gate),high polyreactivity
QVQLVESVRGLVQAGGSLRLICDASGRTFPRYAKGWNRQAPGKEWEFVAAIRYSGDNTYYADSVKGRFTISRDNAKNTVYLQMNSLKPEDTAVYYCAARTYGNYRYSTYYYWGQGTQVTVSS,polyreactivity (PSR sort gate),high polyreactivity
QVQLVESVRGLVQAGGSLRLSCAASGRILPSNAMGWYRQAPGKERELVAGITSGGSTDYADSVKGRFTISRDNAKNTVYLQMNSLKPEDTAVYYCNKPFPYYPDGPNGYDYWGQGTQVTVSS,polyreactivity (PSR sort gate),low polyreactivity
QVQLVESVRGLVQAGGSLRVSCAASGRTFIVYAMGWYRQAPGKERELVAGITRGSTKYADSVKGRFTISRDNAKNTVYLQMNSLKPEDTAVYYCAGRSSRRGPISEGDYWGQGTQVTVSS,polyreactivity (PSR sort gate),high polyreactivity
QVQLVESVVGLVQAGGSLRLSCAASGSIFIENTMGWYRQAPGKERELVAAISGSVGRTFYADSVKGRFTISRDNAKNTVYLQMNSLKPEDTAVYYCAAVRRTSPGWVYYWGQGTRVTVSS,polyreactivity (PSR sort gate),high polyreactivity
QVQLVESVVGLVQAGVSLRLSCAASGSIFEQYAMGWYRQAPGKERELVAAISKRGTSTYYADSVKGRFTISRDNAKNTVYLQINSLKPEDNAVYDCAATNRWYYRAAASVYAFGYWGLGTQVTVSS,polyreactivity (PSR sort gate),high polyreactivity
QVQLVESVVGLVQAVGTLRLSSAATGSTIYRNAMGWYRQPPGKEREFVAAISFRGGGTYADSVKGRFTISRDNAKNTVYLQMNSLKPEDTAVYYCAADHLSYRRRYEYWGQGTQVTVSS,polyreactivity (PSR sort gate),low polyreactivity
QVQLVESVVGLVQSRVRHPLSCSASGIIFAQNAMGWYRQAPGKERELVARITSSGGGTNYADSVKGRFTISRDNAKNTVYLQMNSLKPEDTAVYYCATRWPYRSDWGQGTQVTVSS,polyreactivity (PSR sort gate),high polyreactivity
QVQLVESWAGLVQAGGRLRLSCAASGSSFQVYAMGWYRQAPGKERELVAAISGDGGSTYYADSVKGRFTISRDNAKNTVYLQMNSLKPEDTAVYYCAARGLFRYTDYGYWGQGTQVTVST,polyreactivity (PSR sort gate),low polyreactivity
QVQLVESWAGLVQAGGSLRLSCAASGIIFHFNDMGWYRQAPGKERELVAAITSGGSTNYADSVKARFTISRDNAKNNVYLQMNSLKPEDTAVYYCAARRGLRLFAYSHGYWGQGSQVTVSS,polyreactivity (PSR sort gate),low polyreactivity
QVQLVESWGGLFQAGGSLRLSCAASGRTFSYNAMGWYRQAPGKERELVAAMTWRGSTTYYADSVKGRFTISRDHAKNTVYLQMNSLKPEDTAVYYCADATGQPYILDYWGQGTQVTVSS,polyreactivity (PSR sort gate),low polyreactivity
QVQLVESWGGLVEAGGSLRLSCAASGRTFRSYAMVWYRQAPWKERELVAAISDGGSTNYADSVKGRFTISRDNAKNTVYLQMNSLKPEDTAVYYCAAVIFFAVFRFYYWGQGTQVTVSS,polyreactivity (PSR sort gate),low polyreactivity
QVQLVESWGGLVHAGGSLRLSCAASGSIFDWYAMGWYRQAPGTERELVAAINEGGGSTYYADSVKGRFTISRDNAKNSVYLQMNSLKPEDTAVYYCAAGDYYLQDNYWGQGTQVTVSS,polyreactivity (PSR sort gate),low polyreactivity
QVQLVESWGGLVHAGGSLRLSCAASGSTFAGYAMGWYRKATGTERELVATITYSGGSTYYADSVKGRFTISRDNAKNTVYLQMNSLKTEDTAVYYCAKKASYWWGYEYWGQGTQVTVSS,polyreactivity (PSR sort gate),low polyreactivity
